B1: H1M15267N (antibody, V domains shown)
VH: QVQLQESGPGLVKPSETLSLTCTVSGGSISSYYWSWIRQPPGKGLEWIGYIYYSGSPNYNPSLKSRVTISVDTSKNQFSLKLTSVTAADTAVYYCARSLNWGPPFDYWGQGTLVTVSS
VL: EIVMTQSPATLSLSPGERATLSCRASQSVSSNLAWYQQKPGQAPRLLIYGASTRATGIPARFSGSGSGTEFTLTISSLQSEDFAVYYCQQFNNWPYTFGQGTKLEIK
B2: H2aM15279N (antibody, V domains shown)
VH: EVQLLESGGGLVQTGGSLRLSCAASGFTFSNYAMSWVRQAPGKGLEWVSAISDRGGSIYYADSVKGRFTISRDNSKNTKYLQMDSLRAEDTAVYYCAQDRGFGVFDYWGQGTLVTVSS
VL: DIQMTQSPSSLSASVGDRVTITCQASQDIGNYLNWFQQRPGKAPNLLIYGASNLETGVPSRFSGGGSGTDFTFTISSLQPEDIATYFCQQYDNLPFTFGPGTKVEIK
B3: H2bM15292N (antibody, V domains shown)
VH: QVQLVQSGAEVKKPGSSVKVSCKASGGTFNNYAISWVRQAPGQGLEWMGGIIPFFGTTNYAQKFQDRVTITSDDSTITAYMELSRLRSEDTAVYYCARDEPRRDGYNYYHYYYMDVWGQGTTVTVSS
VL: DIQMTQSPSSLSASVGDRVTITCRASQSINSYLNWYQQKPGKAPNLLIYAASSLQSGVPSRFSGSGSGTDFTLTISSLHPEDFATYYCQQSYSTPPITFGQGTRLEIK
B4: H1M15289N (antibody, V domains shown)
VH: QVQLQESGPGLVKPSETLSLTCTVSGGSISSYYWSWIRQPPGKGLEWIGYIYYSGSANYNPSLKSRVTISVDTSKNQFSLKLSSVTAADTAVYYCVRDRDLLLDHWGQGTLVTVSS
VL: EIVMTQSPATLSVSPGKRATLSCRASQSVSSNLAWYQQKPGQAPRLLIYGASTRTTGFPARFSGSGSGTDFTLTISSLQSEDFAVYYCQQYNNWPYTFGQGTMLEIK
B5: H2aM15281N (antibody, V domains shown)
VH: QVQLVQSGAEVKKPGSSVKVSCKASKDTFSSYAISWVRQAPGQGLEWMGGIIPFFGTTTYEQKFQGRVTITTDESTRTAYMELSSLRSEDSAVYYCARDRPCISSAGTRYHYCVMDVWGQGTTVTVSS
VL: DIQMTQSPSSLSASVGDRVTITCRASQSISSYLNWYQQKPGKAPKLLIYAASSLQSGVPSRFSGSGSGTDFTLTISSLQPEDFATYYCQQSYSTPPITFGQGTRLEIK
B6: H2aM15272N (antibody, V domains shown)
VH: QVRLVQSGAEVKKPGSSVKVSCKASGDTFSSYAISWVRQAPGQGLEWMGGIIPFFVTTTYAQNFQGRVTITTDESTRTAYMELSSLRSEDSAVYYCARDRPCISSAGTRYHYCVMDVWGQGTTVTVSS
VL: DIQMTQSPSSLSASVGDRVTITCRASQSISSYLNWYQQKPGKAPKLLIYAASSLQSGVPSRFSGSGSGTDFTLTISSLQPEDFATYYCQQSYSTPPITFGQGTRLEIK
B7: H2aM15270N (antibody, V domains shown)
VH: EVQLLESGGGLEQPGGSLRLSCAASGFTFSSYAMIWVRQAPGKGLEWVSTISGSGVNTYYADSVKGRFTISRDNSKNTLHLQMNSLRAEDTAVYHCAKEGLDCANGVCYNYYGMDVWGQGTTVTVSS
VL: DIQMTQSPSSLSASVGDRVTITCRASQSINSFLNWYHQKPGKAPKFLIYSASNLQSGVPSRFSGSGSGTDFTLTISSLQPEDFSTYYCQQSYSIPLTFGGGTKVEIK
B8: H1M15290N (antibody, V domains shown)
VH: QVQLVQSGAEVKKPGSSVKVSCKASGGTFSTYAISWVRQAPGQGLEWMGGIIPFFGTANYAQKFQGRVTITTDESTSTAYMELSSLRSEDTAVYYCAREGTYYDSLTGYYTHYYRMDVWGQGTTVTVSS
VL: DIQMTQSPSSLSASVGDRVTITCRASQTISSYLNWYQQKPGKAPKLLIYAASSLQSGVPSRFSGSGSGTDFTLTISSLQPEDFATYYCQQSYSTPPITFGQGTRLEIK
B9: H1M15280N (antibody, V domains shown)
VH: EVQLLESGGGLVQPGGSLRLSCAASGFTFSSYAMSWVRQAPGKGLEWVSAISGSGSSTYYADSVKGRFTISRDNSKNTLFLQMNSLRAEDTAVYYCAEGGDVDFDYWGQGTLVTVSS
VL: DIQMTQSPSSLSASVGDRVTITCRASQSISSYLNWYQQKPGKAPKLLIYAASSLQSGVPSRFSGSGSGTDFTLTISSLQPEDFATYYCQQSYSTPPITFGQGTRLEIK
B10: H2aM15287N (antibody, V domains shown)
VH: QLQLQESGPGLVKPSETLSLTCTVSGGSISSGNYYWGWIRQPPGKGLEWFGTIYYSGSTYYNPSLKSRVTISVDTSKNQFSLKLSSVTAADTAVYYCARRAAVGHFDYWGQGTLVTVSS
VL: DIQMTQSPSTLSASVGDRVTITCRASQSISTWLAWYQQKPGKAPKLLIYEASSLESGVPSRFSGSGFGTEFTLTISRLQPDDFATYFCQQYNTYWTFGQGTKVEIK

Assays:
MERS RBD-hFc [1] = target: T1, MERS RBD-hFc (MERS-CoV (isolate EMC/2012)); assay: ELISA on coated MERS RBD-hFc, hybridoma supernatant 1:50, absorbance at 450 nm
MERS RBD-hFc [2] = target: T1, MERS RBD-hFc; assay: SPR Biacore, captured mAb, 25 C
MERS RBD-hFc [3] = target: T1, MERS RBD-hFc; assay: SPR (Biacore), hybridoma supernatant antibody captured, MERS RBD-hFc as analyte
MERS RBD-hFc [4] = target: T1, MERS RBD-hFc; assay: SPR Biacore, captured mAb, 37 C

| Binder | ELISA Binding (MERS RBD-hFc [1]) | Kd (MERS RBD-hFc [2]) | koff (MERS RBD-hFc [2]) | kon (MERS RBD-hFc [2]) | t1/2 (MERS RBD-hFc [2]) | Kd (MERS RBD-hFc [3]) | t½ (MERS RBD-hFc [3]) | Kd (MERS RBD-hFc [4]) | koff (MERS RBD-hFc [4]) | kon (MERS RBD-hFc [4]) | t1/2 (MERS RBD-hFc [4]) |
| --- | --- | --- | --- | --- | --- | --- | --- | --- | --- | --- | --- |
| B1 | 2.62 | 0.181 nM | 0.000153 s⁻¹ | 843000 M⁻¹ s⁻¹ | 75 min | 0.328 nM | 94.1 min | 0.314 nM | 0.000745 s⁻¹ | 2.37e+06 M⁻¹ s⁻¹ | 16 min |
| B2 | 2.18 | 0.102 nM | 8.91e-05 s⁻¹ | 870000 M⁻¹ s⁻¹ | 130 min | 0.266 nM | 96 min | 0.32 nM | 0.000445 s⁻¹ | 1.39e+06 M⁻¹ s⁻¹ | 26 min |
| B3 | 2.78 | 0.34 nM | 0.000155 s⁻¹ | 457000 M⁻¹ s⁻¹ | 75 min | 0.593 nM | 67.8 min | 0.963 nM | 0.000524 s⁻¹ | 544000 M⁻¹ s⁻¹ | 22 min |
| B4 | 2.73 | 0.21 nM | 4.41e-05 s⁻¹ | 210000 M⁻¹ s⁻¹ | 262 min | 0.669 nM | ≥ 115 min | 0.275 nM | 0.000126 s⁻¹ | 459000 M⁻¹ s⁻¹ | 92 min |
| B5 | 2.54 | 0.39 nM | 0.000818 s⁻¹ | 2.1e+06 M⁻¹ s⁻¹ | 14 min | 2.77 nM | 10.4 min | 0.213 nM | 0.000543 s⁻¹ | 2.55e+06 M⁻¹ s⁻¹ | 21 min |
| B6 | 2.52 | 0.443 nM | 0.000733 s⁻¹ | 1.65e+06 M⁻¹ s⁻¹ | 16 min | 2.72 nM | 9.5 min | 0.316 nM | 0.000634 s⁻¹ | 2e+06 M⁻¹ s⁻¹ | 18 min |
| B7 | 2.04 | 0.776 nM | 0.000605 s⁻¹ | 779000 M⁻¹ s⁻¹ | 19 min | 1.79 nM | 17.3 min | 0.651 nM | 0.00114 s⁻¹ | 1.75e+06 M⁻¹ s⁻¹ | 10 min |
| B8 | 2.76 | 0.438 nM | 0.000211 s⁻¹ | 482000 M⁻¹ s⁻¹ | 55 min | 0.778 nM | 80.7 min | 1.48 nM | 0.000984 s⁻¹ | 666000 M⁻¹ s⁻¹ | 12 min |
| B9 | 2.75 | 18.5 nM | 0.00525 s⁻¹ | 283000 M⁻¹ s⁻¹ | 2.2 min | 6.53 nM | 7.4 min | 13.2 nM | 0.00657 s⁻¹ | 497000 M⁻¹ s⁻¹ | 1.8 min |
| B10 | 2.53 | 6.98 nM | 0.000442 s⁻¹ | 63300 M⁻¹ s⁻¹ | 26 min | 0.245 nM | ≥ 115 min | 10.9 nM | 0.00189 s⁻¹ | 174000 M⁻¹ s⁻¹ | 6 min |
